Data on two molecules can be found in patent CN116003603A (CR BIO MEDICAL INC, dated 2023).

For assay [1], the target named is T1, CLDN18.2 (antigen of the ka/kd/KD measurement, species and form not stated). The assay can be described thus: affinity measurement, method not described (Table 2-2, headed P1530).
In assay [2] the target is T2, CLDN18.2 (on CLDN18.2过表达细胞, species not stated).
T2 construct: whole, on cells
The assay can be described thus: flow cytometry, antibody titration on CLDN18.2 over-expressing cells, MFI (Table 2-2, headed P1530). A general note: A flow cytometer gives signals particle by particle.

Assay [3] concerns the target T1, CLDN18.2 (antigen of the ka/kd/KD …). Briefly: affinity measurement, method not described.
For assay [4], the target named is T2, CLDN18.2 (on CLDN18.2过表达细胞, species not …). The assay can be described thus: flow cytometry, antibody titration on CLDN18.2 over-expressing cells, MFI.

T1 sequence (P56856 other isoform, or with tags, fused parts or gaps): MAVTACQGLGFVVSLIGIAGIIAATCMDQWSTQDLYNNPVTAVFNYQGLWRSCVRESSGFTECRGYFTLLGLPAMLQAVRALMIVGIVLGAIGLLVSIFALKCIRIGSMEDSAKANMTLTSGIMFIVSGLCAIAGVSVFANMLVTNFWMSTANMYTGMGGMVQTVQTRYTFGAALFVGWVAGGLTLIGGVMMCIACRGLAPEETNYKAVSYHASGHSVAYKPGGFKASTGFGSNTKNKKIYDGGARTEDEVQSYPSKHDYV

B1: CLDN-BC-P1530-hH1 (antibody, V domains shown)
VH: QVQLVESGGGLVQPGGSLRLSCAASRFTFSNYAMNWVRQAPGKGLEWVSSISGSGGSSYYADSVKGRFTISKDNSQNMLYLQMNSLRAEDTAVYYCAKADWKYGYYGMDVWGQGTTVTVSS
VL: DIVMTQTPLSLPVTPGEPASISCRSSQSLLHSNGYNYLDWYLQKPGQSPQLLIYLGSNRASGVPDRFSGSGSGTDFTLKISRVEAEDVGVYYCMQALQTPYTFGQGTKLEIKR
notes: also called P1530-IgG1
With B1, in assay [1], the equilibrium dissociation constant (Kd) came out at 6.8 nM, the koff is 0.00355 s⁻¹ and the association rate constant (kon) was 523000 M⁻¹ s⁻¹. The half-maximal effective concentration (EC50) in assay [2] turned out to be 0.62 µg/mL.

B2: CLDN-BC-P1531-hH1 (antibody, V domains shown)
VH: QVQLVESGGGLVQPGGSLRLSCAASRFTFSNYAMNWVRQAPGKGLEWVSSISGSGGSSYYADSVKGRFTISKDNSQNMLYLQMNSLRAEDTAVYYCAKADWKYGYYGMDVWGQGTMVTVSS
VL: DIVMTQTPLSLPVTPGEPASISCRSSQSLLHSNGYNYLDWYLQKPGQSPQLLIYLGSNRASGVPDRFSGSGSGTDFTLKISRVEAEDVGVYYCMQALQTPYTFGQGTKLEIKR
notes: also called CLN-P1531-hH1; P1531-IgG1
In assay [3], B2 yielded a Kd of 5.9 nM, a koff of 0.00293 s⁻¹ and a kon of 497000 M⁻¹ s⁻¹. In addition, the EC50 in assay [4] was found to be 0.69 µg/mL.

Usually Kd stands for the equilibrium constant for the complex coming apart. A low value points to a tighter complex. The term koff denotes the first-order rate constant of dissociation. Usually kon stands for a measure of how fast the partners come together. Low readings indicate slow association, high ones fast association. The term EC50 denotes the concentration needed to bring the measured effect to its halfway point.
